Measurements reported in patent US20080009025A1, “PROTEIN KINASE REGULATION” (priority 1999, published 2008).
Where a chain is given by its changes, count along the chain named.

Tests used:
PDK1-wt = target: T1, PDK1-wt (Homo sapiens, UniProt O15530); assay: Phosphorylation of AGC kinase substrates by PDK1 (32P, PhosphoImager); assay type: biochemical; details: for Relative phosphorylation of PDK1 substrates PDK1-wt +PIFtide: with PIFtide; for Relative phosphorylation of PDK1 substrates PDK1-wt +PIFtide / Relative phosphorylation of PDK1 substrates PDK1-wt —: PKB[S473D] rate with PtdIns(3,4,5)P3 = 100; for Relative phosphorylation of PDK1 substrates PDK1-wt —: without PIFtide
T1 construct: made in house; host or cells: human embryonic kidney 293 cells
T1 sequence (O15530 1-556): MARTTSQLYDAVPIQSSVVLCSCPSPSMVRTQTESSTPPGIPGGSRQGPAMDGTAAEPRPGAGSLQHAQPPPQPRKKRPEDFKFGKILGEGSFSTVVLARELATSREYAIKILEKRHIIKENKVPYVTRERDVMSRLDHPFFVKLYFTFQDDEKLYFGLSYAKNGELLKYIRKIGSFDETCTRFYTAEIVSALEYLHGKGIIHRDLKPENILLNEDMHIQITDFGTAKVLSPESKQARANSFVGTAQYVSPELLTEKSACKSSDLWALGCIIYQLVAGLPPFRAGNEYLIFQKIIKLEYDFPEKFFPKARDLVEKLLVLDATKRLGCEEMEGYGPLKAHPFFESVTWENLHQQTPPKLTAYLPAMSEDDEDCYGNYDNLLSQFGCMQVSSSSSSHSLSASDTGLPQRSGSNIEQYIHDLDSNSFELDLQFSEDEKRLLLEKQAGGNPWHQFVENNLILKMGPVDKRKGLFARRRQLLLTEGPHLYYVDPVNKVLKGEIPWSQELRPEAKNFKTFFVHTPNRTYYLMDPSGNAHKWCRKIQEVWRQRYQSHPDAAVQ
Procedure: (§1) Phosphorylation of AGC kinase substrates by PDK1. The phosphorylation of PDK1 substrates was performed in a final volume of 20 μl in a buffer containing 50 mM Tris-HCl pH 7.5, 0.1% (by vol) 2-mercaptoethanol, 10 mM magnesium chloride, 100 μM [γ-^32P]ATP (˜1000 c.p.m./pmol), 0.5 μM microcystin-LR, 0.6 μM AGC kinase substrate and 0.6 to 30 nM wild type PDK1 or the indicated mutant of PDK1.
(§2) Relative phosphorylation of PDK1 substrates. PDK1 substrates were phosphorylated in vitro, subjected to SDS-PAGE, and radioactivity associated with the bands measured using a Phospho-Imager and known amounts of ATP as standard. The phosphorylation rate of PKB[S473D] in the presence of PtdIns (3,4,5)P3 was 2.6 mol/mol PDK1/min and was taken as the relative value of 100. Average values from a representative experiment performed in duplicates are shown.

PDK1-L155E = target: T2, PDK1-L155E (Homo sapiens, UniProt O15530, L155E); assay: as above; assay type: biochemical; details: PKB[S473D] rate by PDK1-wt = 100; for Relative phosphorylation of PDK1 substrates PDK1-L155E +PIFtide: with PIFtide; for Relative phosphorylation of PDK1 substrates PDK1-L155E —: without PIFtide
T2 construct: made in house; host or cells: human embryonic kidney 293 cells
T2 sequence (O15530 1-556 L155E): T1 sequence (O15530 1-556) with L155E
Procedure: as §1, §2

p70 S6K = assay: IGF1-induced activation and Thr412 phosphorylation of HA-p70 S6K in co-transfected 293 cells; assay type: cell-based, human; details: 293 cells
Procedure: FIG. 3. PIF inhibits p70 S6K activation and phosphorylation at Thr252 and Thr412. 293 cells were co-transfected with constructs expressing the wild type (wt) full length HA-p70 S6K (A) or the full length HA-T412E p70 S6K (B) with either GST-PIF, GST-F977A-PIF, or GST. 24 h post transfection the cells were serum starved for 16 h and them stimulated for 40 min with 100 nM IGF 1. The cells were lysed and HA-p70 S6K was immunoprecipitated and assayed as described in methods. Protein from each lysate (10 μg for the HA blots or 20 μg for the T412-P blot) was electrophoresed on a 10% SDS/polyacrylamide gel and immunoblotted using HA-antibody or the T412-P antibody. The T412-P antibody was incubated with either the synthetic peptide (10 μg/ml) corresponding to residues 401 to 418 of p70 S6K phosphorylated at Thr412 (phosph-412E peptide), or the unphosphorylated peptide (de-phospho-Thr412 peptide). The T412-P antibody consistently recognises a protein termed “non specific band” in cell lysates which migrate at (75 kDa) derived from non transfected and transfected cells. […] It is not co-immunoprecipitated with HA-p70 S6K (date not shown). The HA-p70 S6K activities shown are the average ±SEM for a single experiment carried out in triplicate. Similar results were obtained in 8 separate experiments (A) and 2 experiments (B). The immunoblotting was carried out in 3 separate experiments with similar results.
Transient Transfection Experiments. The DNA constructs encoding for the wild type and mutant forms of HA-p70 S6K in the pMT2 vector used in this study have been described previously. […] The constructs used to express GST-PIF and the mutant GST-F977A-PIF [22] are in the pEBG2T vector. The empty pEBG2T vector was used to express GST protein in control experiments. DNA constructs used in this study were purified from bacteria using the Qiagen plasmid Mega kit according to the manufacturer's protocol.
293 cells cultured on 10 cm diameter dishes in Dulbecco's Modified Eagle's Medium containing 10% (by vol) foetal bovine serum, were transfected with 2 μg of DNA construct encoding either wild type or mutant HA-p70 S6K or HA-PKBα, and 10 μg of DNA construct encoding either GST-PIF, GST-F977A-PIF, GST, Myc-PDK1, kinase-dead Myc-PDK1, or the empty pCMV5 vector using a modified calcium phosphate method. 24 h post transfection the cells were deprived of serum for 16 h, and exposed to IGF1 (100 nM) for the time indicated. The cells were lysed in 1 ml of lysis buffer (50 mM Tris/HCl pH 7.5, 1 mM EDTA, 1 mM EGTA, 1% (by vol) Triton X-100, 1 mM sodium orthovanadate, 10 mM sodium β-glycerophosphate, 50 mM NaF, 5 mM sodium pyrophosphate, 1 μM microcystin-LR, 0.27 M sucrose and protease cocktail tablets), cleared by centrifugation, and 50 μg of protein was subjected to immunoprecipitation with anti HA monoclonal antibody. The protein concentrations of the lysates were determined by the Bradford method.
Kinase assays. The HA-p70 S6K or HA-PKBα immunoprecipitates were washed and assayed for kinase activity using the peptide Crosstide (GRPRTSSFAEG) as described previously for PKBα [28]. One unit of activity, U, was that amount which catalysed the phosphorylation of 1 nmol of substrate in one minute.
Immunoblotting for dephosphorylated and Thr412-phosphorylated p70 S6 kinase. Cell lysates were made 1% SDS and the indicated amounts of protein were subjected to SDS/Polyacrylamide gel electrophoresis, subsequently transferred to nitrocellulose and immunoblotted using the indicated monoclonal antibody or the T412-P phospho-specific antibody (0.4 μg/ml) in 50 mM Tris/HCl pH7.5, 0.15M NaCl, 0.5% (by vol) Tween and 10% (by mass) skimmed milk. Detection was performed using the enhanced chemiluminescence reagent (Amersham Pharmacia Biotech).

PDK1 [1] = details: ref [22]; cited from earlier work
PDK1 [2] = target: T3, PDK1 (Homo sapiens, UniProt O15530); assay: Phosphorylation of GST-p70 S6K-T2 by PDK1 in vitro (32P autoradiography); assay type: biochemical; design: made in house; host or cells: 293 cells or E. coli; details: GST fusion 1.5 μM; GST-PDK1 50 nM
T3 sequence (O15530 1-556): T1 sequence (O15530 1-556)
Procedure: FIG. 1. PIF prevents PDK1 from phosphorylating p70 S6K in vitro. GST-p70 S6K lacking the C-terminal 104 amino acids (GST-p70 S6KT2) (1 μg) was incubated for 30 min at 30° C. with Mg [γ^32P] ATP and GST-PDK1 (50 nM) in the presence or absence of either wild type (wt) GST-PIF or D978A GST-PIF (1.5 μM), or the indicated PIF peptides (4 μM) in a final volume of 20 μl. The reactions were terminated by making the solutions 1% in SDS, the samples subjected to SDS-polyacylamide gel electrophoresis, and the phosphorylation assessed by autoradiography of the gel. The position in the gel where GST-p70 S6KT2 (73 kDa) migrates is indicated with an arrow. The only other ^32P-labelled protein on the gel which is not shown, corresponded to autophosphorylation of PDK1 and contained ˜10 fold lower levels of ^32P-radioactivity than that of the GST-p70 S6T2 phosphorylated by PDK1 in the absence of PIF. A high amount of PDK1 is used in this experiment to achieve a near maximal phosphorylation of GST-p70 S6T2. If the reactions were carried out at a 10-fold lower concentration of PDK1 under conditions where the phosphorylation of GST-p70 S6T2 by PDK1 is linear with time and the amount of substrate used, then PIF still prevented the phosphorylation of GST-p70 S6T2 (data not shown). wt indicates wild type and PSer indicates phospho-serine. The results of a duplicate experiment for each condition are shown, and similar findings were obtained in five separate experiments.
Preparation of insect cell His-p70 S6K. p70 S6K with a His-epitope tag at its N-terminus lacking the carboxy terminal 104 residues is termed p70 S6K-T2. In order to prepare wild type and the mutant 412E-p70 S6K-T2 the cDNA for these constructs was amplified by PCR from the pMT2 vector encoding these forms of p70 S6K [6] using the following oligonucleotides: 5′-AGGATCCACCATGCACCATCACCATCACCATATGAGGCGAGCAAGGAGGCGG-3′ and 5′-GCGGCCGCTCAACTTTCAAGTACAGATGGAGCC-3′. The PCR products were then subcloned into the BamH1/Not1 sites of the pFASTBAC 1 vector and this vector was used to generate recombinant baculovirus using the Bac-to-Bac system (Life Technologies Inc). The resulting viruses, encoded p70 S6K-T2 or 412E-p70 S6K-T2 with an N-terminal hexahistidine sequence, and was used to infect Sf21 cells (1.5×10^6/m) at a multiplicity of infection of 5. The infected cells were harvested 72 h post-infection and the His-p70 S6K proteins purified by Ni^2+/NTA (nitrilotriacetic acid)-agarose chromatography as described previously for PKBβ [25]. […]

Substance | Relative phosphorylation of PDK1 substrates PDK1-wt +PIFtide (PDK1-wt) | Relative phosphorylation of PDK1 substrates PDK1-wt — (PDK1-wt) | Relative phosphorylation of PDK1 substrates PDK1-L155E +PIFtide (PDK1-L155E) | Relative phosphorylation of PDK1 substrates PDK1-L155E — (PDK1-L155E) | HA-p70 S6K activity after IGF1 stimulation (p70 S6K; 100 nM IGF1 40 min) | IGF1-induced phosphorylation of HA-p70 S6K at Thr412 (p70 S6K; T412-P antibody) | phosphorylation rate (PDK1-wt; in the presence of PtdIns (3,4,5)P3) [mol/mol PDK1/min] | affinity for PDK1 compared with wild type PIF (PDK1 [1]) | effect on phosphorylation of GST-p70 S6K-T2 by PDK1 (PDK1 [2])
FL-PKB: full length GST-tagged PKBα | 19.3 | 28 | 35 | 35 | – | – | – | – | –
GST-F977A-PIF: mutant form of GST-PIF which interacts with PDK1 weakly | – | – | – | – | substantially activated | still occurred but a lower level | – | – | –
FL-PKB 473D: full length PKBα with Ser473 mutated to Asp | 85.4 | 100 | 162 | 178 | – | – | 2.6 | – | –
GST-D978A-PIF: mutant GST-PIF in which the amino acid equivalent to Asp978 in PRK2 is mutated to Ala | – | – | – | – | – | – | – | markedly reduced affinity | poorly inhibited
